In the RNAGym collection of RNA variant scans (doi:10.1021/acssynbio.7b00057):

B1: Pistol ribozyme (parent)
chain: GGGUCGUUGUUCCAUAAUCGCGUGGAUAUGGCACGCAAGUUUCUACCGGGCACCGUAAAUGUCCGACUGGAGCCGUUCGGGCGGCUAUAAACAGACCUCAGGCCCGAAGCGUGGCGGCACCUGCCGCCGGUGGUAAAAAAGAUCGGAAGAGCACACGUCU

Variants of: B1
Assay: aptazyme ON/OFF ratio, guanine; higher = stronger switching; co-transcriptional cleavage with and without guanine
In the case of U7C U8G G9C C12U C13G, the “aptazyme ON/OFF ratio” value is reported as 1.07. In the case of U7C U8G G9C C12U C13U, the “aptazyme ON/OFF ratio” value is reported as 1.2. In the case of U7C U8G G9A U11C C12U C13A, the “aptazyme ON/OFF ratio” value is reported as 1.09. For U7C U8G G9A U11C C12U C13U, the “aptazyme ON/OFF ratio” value was 1.09. With U7C U8G G9A U11C C12U C13G the “aptazyme ON/OFF ratio” value was 1.15. With U7C U8G G9C U10A U11A C12G C13U the “aptazyme ON/OFF ratio” value was 1.17. In the case of U7C U8G G9C U10A U11A C12G C13A, the “aptazyme ON/OFF ratio” value is reported as 1.12. In the case of U7C U8G G9C U10A U11A C12G C13G, the “aptazyme ON/OFF ratio” value is reported as 1.18. In the case of U7C U8G G9A U10A U11C C12U, the “aptazyme ON/OFF ratio” value is reported as 1.05. For U7C U8G G9A U10A U11C C12G, the “aptazyme ON/OFF ratio” value was 1.25. With U7C U8G G9A U10A U11C C12A the “aptazyme ON/OFF ratio” value was 1.21. For U7C U8G G9A U11G, the “aptazyme ON/OFF ratio” value was 1.18. For U7C U8G G9A U11A, the “aptazyme ON/OFF ratio” value was 1.18. In the case of U7C U8G G9A U11C, the “aptazyme ON/OFF ratio” value is reported as 1.04. In the case of U7C U8G G9A U10C U11A C12A, the “aptazyme ON/OFF ratio” value is reported as 1.15. With U7C U8G G9A U10C U11A C12G the “aptazyme ON/OFF ratio” value was 1.13. For U7C U8G G9A U10C U11A C12U, the “aptazyme ON/OFF ratio” value was 1.09. With U7C U8G G9A U10C U11C C12G the “aptazyme ON/OFF ratio” value was 1.03. With U7C U8G G9A U10C U11C C12U the “aptazyme ON/OFF ratio” value was 1.01. For U7C U8G G9A U10C U11C C12A, the “aptazyme ON/OFF ratio” value was 1.05. In the case of U7C U8G G9C U10A C12A C13A, the “aptazyme ON/OFF ratio” value is reported as 1.22. With U7C U8G G9C U10A C12A C13U the “aptazyme ON/OFF ratio” value was 1.18. With U7C U8G G9C U10A C12A C13G the “aptazyme ON/OFF ratio” value was 1.1. In the case of U7C U8G G9A U10G U11G, the “aptazyme ON/OFF ratio” value is reported as 1.42. With U7C U8G G9A U10G U11C the “aptazyme ON/OFF ratio” value was 1.06. In the case of U7C U8G G9A U10G U11A, the “aptazyme ON/OFF ratio” value is reported as 1.05. With U7C U8G G9C U10A the “aptazyme ON/OFF ratio” value was 1.28. With U7C U8G G9A U10G U11A C12G C13G the “aptazyme ON/OFF ratio” value was 1.24. In the case of U7C U8G G9A U10G U11A C12G C13U, the “aptazyme ON/OFF ratio” value is reported as 1.42. With U7C U8G G9A U10G U11A C12G C13A the “aptazyme ON/OFF ratio” value was 1.26. For U7C U8C U11G C13U, the “aptazyme ON/OFF ratio” value was 1.3. For U7C U8G G9A U11G C12U C13A, the “aptazyme ON/OFF ratio” value was 1.27. In the case of U7C U8G G9A U11G C12U C13G, the “aptazyme ON/OFF ratio” value is reported as 1.29. In the case of U7C U8G G9A U11G C12U C13U, the “aptazyme ON/OFF ratio” value is reported as 1.27. In the case of U7C U8G G9A U10G U11C C13A, the “aptazyme ON/OFF ratio” value is reported as 1.11. For U7C U8G G9A U10G U11C C13G, the “aptazyme ON/OFF ratio” value was 1.04. In the case of U7C U8G G9A U10G U11C C13U, the “aptazyme ON/OFF ratio” value is reported as 1.03. With U7C U8G G9C U10A U11A C13A the “aptazyme ON/OFF ratio” value was 1.15. With U7C U8G G9C U10A U11A C13G the “aptazyme ON/OFF ratio” value was 1.08. With U7C U8G G9C U10A U11A C13U the “aptazyme ON/OFF ratio” value was 1.2. For U7C U8G G9A U11A C12A, the “aptazyme ON/OFF ratio” value was 1.29. In the case of U7C U8G G9A U11A C12G, the “aptazyme ON/OFF ratio” value is reported as 1.11. In the case of U7C U8G G9A U11A C12U, the “aptazyme ON/OFF ratio” value is reported as 1.26. With U7C U8G G9A U10G C12G the “aptazyme ON/OFF ratio” value was 1.34. In the case of U7C U8G G9A U10G C12A, the “aptazyme ON/OFF ratio” value is reported as 1.37. With U7C U8G G9A U10G C12U the “aptazyme ON/OFF ratio” value was 1.37. In the case of U7C U8G G9A U10G U11G C13G, the “aptazyme ON/OFF ratio” value is reported as 1.39. In the case of U7C U8G G9A U10G U11G C13A, the “aptazyme ON/OFF ratio” value is reported as 1.2. In the case of U7C U8G G9A U10G U11G C13U, the “aptazyme ON/OFF ratio” value is reported as 1.19. In the case of U7C U8G G9A U10C C12G C13U, the “aptazyme ON/OFF ratio” value is reported as 1.31. In the case of U7C U8G G9A U10C C12G C13G, the “aptazyme ON/OFF ratio” value is reported as 1.12. For U7C U8G G9A U10C C12G C13A, the “aptazyme ON/OFF ratio” value was 1.13. In the case of U7C U8G C12U C13G, the “aptazyme ON/OFF ratio” value is reported as 1.18. For U7C U8G C12U C13A, the “aptazyme ON/OFF ratio” value was 1.22. In the case of U7C U8G C12U C13U, the “aptazyme ON/OFF ratio” value is reported as 1.3. For U7C U8G G9A U10G U11C C12U C13G, the “aptazyme ON/OFF ratio” value was 1.25. In the case of U7C U8G G9A U10G U11C C12U C13U, the “aptazyme ON/OFF ratio” value is reported as 1.29. With U7C U8G G9A U10G U11C C12U C13A the “aptazyme ON/OFF ratio” value was 1.34. With U7C U8G G9A U10C U11A C12U C13A the “aptazyme ON/OFF ratio” value was 1.07. In the case of U7C U8G G9A U10C U11A C12U C13G, the “aptazyme ON/OFF ratio” value is reported as 1.05. In the case of U7C U8G G9A U10C U11A C12U C13U, the “aptazyme ON/OFF ratio” value is reported as 1.05. With U7C U8G G9A U10A U11G C12A C13U the “aptazyme ON/OFF ratio” value was 1.16. With U7C U8G G9A U10A U11G C12A C13A the “aptazyme ON/OFF ratio” value was 1.13. In the case of U7C U8G G9A U10A U11G C12A C13G, the “aptazyme ON/OFF ratio” value is reported as 1.19. For U7C U8G G9A U10A U11A C13U, the “aptazyme ON/OFF ratio” value was 1.12. For U7C U8G G9A U10A U11A C13A, the “aptazyme ON/OFF ratio” value was 1.12. For U7C U8G G9A U10A U11A C13G, the “aptazyme ON/OFF ratio” value was 1.07. With U7C U8G G9C U10A U11A the “aptazyme ON/OFF ratio” value was 1.3. In the case of U7C U8G G9C U10A U11C, the “aptazyme ON/OFF ratio” value is reported as 1.03. For U7C U8G G9A U10C U11C, the “aptazyme ON/OFF ratio” value was 1.03. With U7C U8G G9A U10C U11A the “aptazyme ON/OFF ratio” value was 1.24. For U7C U8G G9A U10C U11G, the “aptazyme ON/OFF ratio” value was 1.23. In the case of U7C U8G C13U, the “aptazyme ON/OFF ratio” value is reported as 2.24. In the case of U7C U8G C13G, the “aptazyme ON/OFF ratio” value is reported as 1.16. In the case of U7C U8G C13A, the “aptazyme ON/OFF ratio” value is reported as 1.25. In the case of U7C U8G G9A U10G U11G C12A, the “aptazyme ON/OFF ratio” value is reported as 1.33. In the case of U7C U8G G9A U10G U11G C12U, the “aptazyme ON/OFF ratio” value is reported as 1.36. In the case of U7C U8G G9A U10G U11G C12G, the “aptazyme ON/OFF ratio” value is reported as 1.27. With U7C U8G G9A U10G the “aptazyme ON/OFF ratio” value was 2.11. For U7C U8G G9A U10A, the “aptazyme ON/OFF ratio” value was 1.18. In the case of U7C U8G G9A U10C, the “aptazyme ON/OFF ratio” value is reported as 3.63. With U7C U8G G9A U11A C13A the “aptazyme ON/OFF ratio” value was 1.2. In the case of U7C U8G G9A U11A C13U, the “aptazyme ON/OFF ratio” value is reported as 1.19. In the case of U7C U8G G9A U11A C13G, the “aptazyme ON/OFF ratio” value is reported as 1.07.
